Source: PMC6450558

Substrate: CC(=O)N[C@H]1[C@H]([C@H](O)[C@H](O)CO)O[C@](OP(=O)(O)OC[C@H]2O[C@@H](n3ccc(N)nc3=O)[C@H](O)[C@@H]2O)(C(=O)O)C[C@@H]1O
Assay: sialyltransferase kinetics, donor varied
Assay type: biochemical, Homo sapiens
Details: acceptor LacNAc-butyl (11), fixed concentration

Row | Protein | Km [µM] | kcat [s⁻¹] | kcat/Km [M⁻¹ s⁻¹]
1 | human ST6Gal-I (Homo sapiens) (protein) MIHTNLKKKFSCCVLVFLLFAVICVWKEKKKGSYYDSFKLQTKEFQVLKSLGKLAMGSDSQSVSSSSTQDPHRGRQTLGSLRGLAKAKPEASFQVWNKDSSSKNLIPRLQKIWKNYLSMNKYKVSYKGPGPGIKFSAEALRCHLRDHVNVSMVEVTDFPFNTSEWEGYLPKESIRTKAGPWGRCAVVSSAGSLKSSQLGREIDDHDAVLRFNGAPTANFQQDVGTKTTIRLMNSQLVTTEKRFLKDSLYNEGILIVWDPSVYHSDIPKWYQNPDYNFFNNYKTYRKLHPNQPFYILKPQMPWELWDILQEISPEEIQPNPPSSGMLGIIIMMTLCDQVDIYEFLPSKRKTDVCYYYQKFFDSACTMGAYHPLLYEKNLVKHLNQGTDEDIYLLGKATLPGFRTIHC | 119 ± 16 | 0.183 ± 0.00667 | 1530 ± 417
2 | human ST3Gal-IV (Homo sapiens) (protein) MVSKSRWKLLAMLALVLVVMVWYSISREDRYIELFYFPIPEKKEPCLQGEAESKASKLFGNYSRDQPIFLRLEDYFWVKTPSAYELPYGTKGSEDLLLRVLAITSSSIPKNIQSLRCRRCVVVGNGHRLRNSSLGDAINKYDVVIRLNNAPVAGYEGDVGSKTTMRLFYPESAHFDPKVENNPDTLLVLVAFKAMDFHWIETILSDKKRVRKGFWKQPPLIWDVNPKQIRILNPFFMEIAADKLLSLPMQQPRKIKQKPTTGLLAITLALHLCDLVHIAGFGYPDAYNKKQTIHYYEQITLKSMAGSGHNVSQEALAIKRMLEMGAIKNLTSF | 300 ± 66 | 0.0233 ± 0.00167 | 78.3 ± 25
